According to patent US20210147547A1:

Biological target: PD-L1 (UniProt Q9NZQ7)
Assay: in vitro Biacore assay (SPR); format not stated

Sequence of UniProt Q9NZQ7 (Q9NZQ7 19-238 limits assumed): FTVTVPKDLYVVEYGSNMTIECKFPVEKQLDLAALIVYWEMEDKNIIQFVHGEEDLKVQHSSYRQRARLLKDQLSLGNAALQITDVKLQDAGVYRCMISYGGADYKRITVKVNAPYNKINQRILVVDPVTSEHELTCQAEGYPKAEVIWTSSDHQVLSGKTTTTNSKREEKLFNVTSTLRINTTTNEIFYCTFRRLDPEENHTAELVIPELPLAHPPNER

FAZ053 (antibody)
Kd: 0.14 nM
